Measurements reported in the supplement of paper PMC7877785.
± gives the uncertainty stated by the source.

Assay: self-splicing fitness, log relative to wild type (ln ratio); higher = more splicing; Tetrahymena group I intron in knt gene, E. coli kanamycin selection, DiMSum; sequences stand for … in CUCUCU…GGAGGGAAAAGUUAUCAGGCAUGCACCUGGUAGCUAGUCUUUAAACCAAUAGAUUGCAUCGGUUUAAAAGGCAAGACCGUCAAAUUGCGGGAAAGGGGUCAACAGCCGUUCAGUACCAAGUCUCAGGGGAAACUUUGAGAUGGCCUUGCAAAGGGUAUGGUAAUAAGCUGACGGACAUGGUCCUAACCACGCAGCCAAGUCCUAAGUCAACAGAUCUUCUGUUGAUAUGGAUGCAGUUCACAGACUAAAUGUCGGUCGGGGAAGAUGUAUUCUUCUCAUAAGAUAUAGUCGGACCUCUCCUUAAUGGGAGCUAGCGGAUGAAGUGAUGCAACACUGGAGCCGCUGGGAACUAAUUUGUAUGCGAAAGUAUAUUGAUUAGUUUUGGAGUACUCGUGGUCG
How it was run: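 Six replicate transformations of E. coli BL21(DE3) with a pET-22b(+) library were grown overnight at 37°C or 30°C. The library randomised all eight P1ex-region intron nucleotides, the intron lying in the knt kanamycin-resistance gene, and plates were LB agar with or without 25 μg/mL kanamycin plus 100 μg/mL carbenicillin, 50 μM IPTG and 0.2% rhamnose. Pooled colonies were amplicon-sequenced on an Illumina HiSeq 2500, and fitness is the DiMSum error-weighted combination of wild-type-normalised replicate fold changes, kanamycin versus none.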

Sequence | self-splicing fitness (ln) (30 °C) | self-splicing fitness (ln) (37 °C)
GUUCAGCAAUAUUACGAAUU | -1.52 ± 0.14 | -1.14 ± 0.14
GUUCAGCAAUAUUACGAUAG | -2.65 ± 0.2 | -1.53 ± 0.18
GUUCAGCAAUAUUACGAUGA | -1.07 ± 0.13 | -0.686 ± 0.19
GUUCAGCAAUAUUACGAUUC | 0.118 ± 0.095 | 0.523 ± 0.11
GUUCAGCAAUAUUACGCAAC | -2.96 ± 0.22 | -1.48 ± 0.21
GUUCAGCAAUAUUACGCAUA | -0.815 ± 0.083 | 0.0985 ± 0.1
GUUCAGCAAUAUUACGCAUC | -0.592 ± 0.12 | -0.361 ± 0.14
GUUCAGCAAUAUUACGCCAG | -2.06 ± 0.29 | 
GUUCAGCAAUAUUACGCCCC | -0.521 ± 0.16 | -0.42 ± 0.19
GUUCAGCAAUAUUACGCGUG | -0.852 ± 0.083 | 0.166 ± 0.088
GUUCAGCAAUAUUACGCUAC | -3.75 ± 0.29 | -2.67 ± 0.26
GUUCAGCAAUAUUACGCUGG | -4.05 ± 0.27 | -1.53 ± 0.13
GUUCAGCAAUAUUACGCUGU | -3.2 ± 0.17 | -1.65 ± 0.12
GUUCAGCAAUAUUACGGACU | -3.7 ± 0.14 | -2.88 ± 0.18
GUUCAGCAAUAUUACGGAGA |  | -1.33 ± 0.29
GUUCAGCAAUAUUACGGCGC | -0.314 ± 0.094 | 0.633 ± 0.13
GUUCAGCAAUAUUACGGCUA | -0.564 ± 0.14 | -0.232 ± 0.15
GUUCAGCAAUAUUACGGCUG | -3.59 ± 0.23 | -2.38 ± 0.26
GUUCAGCAAUAUUACGGGGC | -2.68 ± 0.16 | -2.78 ± 0.21
GUUCAGCAAUAUUACGUAAC | -0.462 ± 0.17 | -0.994 ± 0.26
GUUCAGCAAUAUUACGUAUG | -2.03 ± 0.1 | -0.968 ± 0.099
GUUCAGCAAUAUUACGUCUA | -1.14 ± 0.14 | -0.132 ± 0.13
GUUCAGCAAUAUUACGUGAA | -1.32 ± 0.087 | -0.784 ± 0.11
GUUCAGCAAUAUUACGUUCU | -0.734 ± 0.073 | -0.74 ± 0.087
GUUCAGCAAUAUUACGUUGC | -3.13 ± 0.12 | -1.7 ± 0.11

Sequence | self-splicing fitness (ln) (30 °C) | self-splicing fitness (ln) (37 °C)
GUUGAGCAAUAUUACGAAUU | -3.8 ± 0.34 | -1.24 ± 0.34
GUUGAGCAAUAUUACGACAG | -4.09 ± 0.36 | -2.49 ± 0.28
GUUGAGCAAUAUUACGACGU | -0.544 ± 0.11 | -0.345 ± 0.12
GUUGAGCAAUAUUACGAGGU | -3.2 ± 0.28 | 
GUUGAGCAAUAUUACGAUGG | -3.31 ± 0.47 | -2.7 ± 0.29
GUUGAGCAAUAUUACGAUGU | -2.43 ± 0.21 | -1.03 ± 0.18
GUUGAGCAAUAUUACGGACG |  | -1.42 ± 0.29
GUUGAGCAAUAUUACGGAUA | -0.148 ± 0.24 | -1.65 ± 0.45
GUUGAGCAAUAUUACGGCUU | -2.84 ± 0.28 | -1.25 ± 0.37
GUUGAGCAAUAUUACGGGUU | -3.57 ± 0.27 | -2 ± 0.21
GUUGAGCAAUAUUACGGUGG | -2.81 ± 0.33 | -2.81 ± 0.48
GUUGAGCAAUAUUACGUCUG | -2.34 ± 0.44 | -2.04 ± 0.4
GUUGAGCAAUAUUACGUUAG | -4.58 ± 0.41 | -2.82 ± 0.43
GUUGAGCAAUAUUACGUUGA | -3.13 ± 0.29 | -2.9 ± 0.33
GUUUAGCAAUAUUACGAAUA | -1.58 ± 0.43 | -0.203 ± 0.3
GUUUAGCAAUAUUACGACAU | -0.224 ± 0.014 | 0.063 ± 0.033
GUUUAGCAAUAUUACGCAGU | -2.92 ± 0.17 | -2.05 ± 0.22
GUUUAGCAAUAUUACGCGAU | -3.12 ± 0.4 | -2.42 ± 0.42
GUUUAGCAAUAUUACGCGCU | -1.52 ± 0.29 | -0.397 ± 0.44
GUUUAGCAAUAUUACGCGUA | -0.947 ± 0.14 | -0.606 ± 0.15
GUUUAGCAAUAUUACGGUAU | -2.05 ± 0.14 | 0.286 ± 0.15
GUUUAGCAAUAUUACGGUCU | -1.44 ± 0.12 | -1.05 ± 0.13
GUUUAGCAAUAUUACGGUGU | -1.95 ± 0.14 | -1.38 ± 0.13
GUUUAGCAAUAUUACGUAAU | -1.15 ± 0.1 | 0.127 ± 0.13
GUUUAGCAAUAUUACGUGAG | -0.583 ± 0.062 | -0.124 ± 0.08

Sequence | self-splicing fitness (ln) (30 °C) | self-splicing fitness (ln) (37 °C)
GUUUAGCAAUAUUACGUGCG | -0.649 ± 0.11 | -0.5 ± 0.11
GUUUAGCAAUAUUACGUGUC | -0.806 ± 0.17 | -1.76 ± 0.17
GUUUAGCAAUAUUACGUUCA | -0.239 ± 0.15 | -0.156 ± 0.13
UAAAAGCAAUAUUACGAAGG | -2.61 ± 0.21 | -1.6 ± 0.23
UAAAAGCAAUAUUACGACAG | -0.555 ± 0.057 | -0.173 ± 0.074
UAAAAGCAAUAUUACGAGAA | -2.18 ± 0.24 | -0.995 ± 0.16
UAAAAGCAAUAUUACGAGAG | -3.35 ± 0.19 | -1.6 ± 0.13
UAAAAGCAAUAUUACGAGUU | -2.99 ± 0.16 | -1.91 ± 0.14
UAAAAGCAAUAUUACGAUGA | -0.245 ± 0.085 | 0.0881 ± 0.087
UAAAAGCAAUAUUACGAUGG | -0.953 ± 0.087 | -0.592 ± 0.11
UAAAAGCAAUAUUACGCACC | -2.48 ± 0.11 | -1.49 ± 0.12
UAAAAGCAAUAUUACGCACG | -0.983 ± 0.079 | -0.0988 ± 0.1
UAAAAGCAAUAUUACGCAGA | -2.11 ± 0.093 | -1.17 ± 0.086
UAAAAGCAAUAUUACGCGUG | -0.88 ± 0.049 | -0.0179 ± 0.066
UAAAAGCAAUAUUACGCUAA | -1.86 ± 0.14 | -0.863 ± 0.13
UAAAAGCAAUAUUACGCUAC | -3.07 ± 0.24 | 
UAAAAGCAAUAUUACGGACA | -0.712 ± 0.082 | 0.302 ± 0.11
UAAAAGCAAUAUUACGGCCU | -0.961 ± 0.1 | -0.4 ± 0.12
UAAAAGCAAUAUUACGGGAC | -3.16 ± 0.13 | -2.47 ± 0.19
UAAAAGCAAUAUUACGGGUA | -0.918 ± 0.09 | -0.192 ± 0.095
UAAAAGCAAUAUUACGGUAC | -3.76 ± 0.16 | -1.42 ± 0.16
UAAAAGCAAUAUUACGGUAU | -3.74 ± 0.23 | -1.85 ± 0.21
UAAAAGCAAUAUUACGUACA | -1.05 ± 0.1 | -0.00957 ± 0.14
UAAAAGCAAUAUUACGUUUU | -3.26 ± 0.13 | -2.82 ± 0.16
UAACAGCAAUAUUACGAAGA | -2.48 ± 0.14 | -1.33 ± 0.11

Sequence | self-splicing fitness (ln) (30 °C) | self-splicing fitness (ln) (37 °C)
UAACAGCAAUAUUACGACAG | -0.741 ± 0.052 | -0.435 ± 0.073
UAACAGCAAUAUUACGACUG | -0.343 ± 0.077 | 0.429 ± 0.099
UAACAGCAAUAUUACGAGAC | -4.18 ± 0.26 | -2.78 ± 0.29
UAACAGCAAUAUUACGCACA | -0.339 ± 0.069 | 0.114 ± 0.099
UAACAGCAAUAUUACGCACG | -1.17 ± 0.058 | -0.421 ± 0.072
UAACAGCAAUAUUACGCGGA | -2.12 ± 0.11 | 0.0542 ± 0.076
UAACAGCAAUAUUACGCGUG | -0.718 ± 0.041 | 0.173 ± 0.055
UAACAGCAAUAUUACGGCCU | -1.21 ± 0.13 | -0.33 ± 0.15
UAACAGCAAUAUUACGGGCC | -3.47 ± 0.26 | -2.98 ± 0.26
UAACAGCAAUAUUACGGGGU | -4.16 ± 0.14 | -2.2 ± 0.12
UAACAGCAAUAUUACGGGUU | -3.91 ± 0.15 | -3.58 ± 0.19
UAACAGCAAUAUUACGGUUA | -1.59 ± 0.1 | -0.652 ± 0.096
UAACAGCAAUAUUACGUAUA | -1.4 ± 0.062 | -0.86 ± 0.069
UAACAGCAAUAUUACGUCGU | -3.43 ± 0.14 | -2.04 ± 0.12
UAACAGCAAUAUUACGUGCA | -0.792 ± 0.063 | -0.445 ± 0.098
UAACAGCAAUAUUACGUGGC | -4.59 ± 0.29 | -2.56 ± 0.23
UAACAGCAAUAUUACGUGGG | -4.35 ± 0.15 | -2.75 ± 0.091
UAACAGCAAUAUUACGUUGC |  | -2.84 ± 0.25
UAAGAGCAAUAUUACGAAAA |  | -2.26 ± 0.38
UAAGAGCAAUAUUACGAACA | -2.71 ± 0.42 | -1.26 ± 0.27
UAAGAGCAAUAUUACGAAUU | -3.74 ± 0.43 | -1.84 ± 0.49
UAAGAGCAAUAUUACGCCGU |  | -2.26 ± 0.43
